In US20050037969A1 (ARBOR VITA, published 2005):
Ends that are not written are not given here. * marks the point of attachment. Biotin = O=C1N[C@H]2[C@H](CS[C@H]2CCCCC(=O)*)N1

How the values were obtained:
Assay in all cases: A/G assays
[1] = target: T1, TAX-IP2L PDZ-GST fusion protein (Homo sapiens (Human), UniProt Q8TF64 107-197)
T1 construct: Order of GST and PDZ part and limits not seen in the excerpts
T1 sequence: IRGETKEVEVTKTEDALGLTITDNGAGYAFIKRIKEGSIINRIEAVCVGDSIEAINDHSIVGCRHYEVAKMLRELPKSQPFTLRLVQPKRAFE

[2] = target: T2, X11β PDZ-GST fusion protein (Rattus norvegicus (Rat), UniProt O35431 560-745)
T2 construct: Order of GST and PDZ part and limits not seen in the excerpts
T2 chain: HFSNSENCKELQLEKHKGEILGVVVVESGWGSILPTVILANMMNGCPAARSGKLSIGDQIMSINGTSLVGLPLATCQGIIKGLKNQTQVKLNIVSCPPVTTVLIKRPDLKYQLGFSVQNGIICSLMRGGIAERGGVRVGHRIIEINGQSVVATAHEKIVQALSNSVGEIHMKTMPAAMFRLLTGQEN

[3] = target: T3, GST-PDZK1 fusion protein (PDZ domains 2-4) (Homo sapiens, UniProt Q5T2W1 134-457)
T3 construct: not shown: glutathione S-transferase encoded by vector pGEX-3X (Pharmacia)
T3 sequence: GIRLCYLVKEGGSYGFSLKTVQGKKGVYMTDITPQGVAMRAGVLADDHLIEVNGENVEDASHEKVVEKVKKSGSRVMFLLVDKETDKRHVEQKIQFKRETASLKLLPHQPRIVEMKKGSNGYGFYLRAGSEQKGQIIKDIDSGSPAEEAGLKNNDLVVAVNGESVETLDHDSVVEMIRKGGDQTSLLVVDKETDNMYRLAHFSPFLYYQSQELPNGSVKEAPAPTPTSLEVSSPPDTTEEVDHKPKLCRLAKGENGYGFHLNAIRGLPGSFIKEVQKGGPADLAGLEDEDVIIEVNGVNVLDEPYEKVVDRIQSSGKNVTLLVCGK

[4] = target: T4, GST-mouse syntenin fusion protein (Mus musculus, UniProt O08992 108-286)
T4 construct: also called Mus musculus Syntenin; not shown: glutathione S-transferase encoded by vector pGEX-3X (Pharmacia)
T4 chain: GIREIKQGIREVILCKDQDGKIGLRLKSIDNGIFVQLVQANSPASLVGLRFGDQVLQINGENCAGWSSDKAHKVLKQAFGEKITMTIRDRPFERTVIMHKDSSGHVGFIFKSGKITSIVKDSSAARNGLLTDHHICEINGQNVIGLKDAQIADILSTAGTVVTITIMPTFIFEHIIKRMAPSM

[5] = target: T5, GST-TAX-IP40 PDZ domain fusion protein (human, UniProt Q6B4M5 150-252 (rat entry))
T5 construct: also called TAX40; not shown: glutathione S-transferase encoded by vector pGEX-3X (Pharmacia)
T5 sequence: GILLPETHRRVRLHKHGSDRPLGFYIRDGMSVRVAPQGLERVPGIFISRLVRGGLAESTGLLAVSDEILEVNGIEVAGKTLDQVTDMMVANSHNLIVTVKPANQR

[6] = target: T6, GST-CASK PDZ domain fusion protein (Homo sapiens, UniProt O14936 486-575)
T6 construct: also called Homo sapiens CASK protein
T6 sequence: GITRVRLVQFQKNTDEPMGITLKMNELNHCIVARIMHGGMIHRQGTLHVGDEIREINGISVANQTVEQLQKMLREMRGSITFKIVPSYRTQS

[7] = target: T7, K559 PDZ-GST fusion protein (Homo sapiens (Human), UniProt Q9Y6V0 4489-4593)
T7 construct: Order of GST and PDZ part and limits not seen in the excerpts
T7 sequence: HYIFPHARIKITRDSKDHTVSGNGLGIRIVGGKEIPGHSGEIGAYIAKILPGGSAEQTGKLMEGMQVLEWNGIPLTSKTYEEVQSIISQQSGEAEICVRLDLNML

[8] = target: T8, ConEn PDZ-GST fusion protein (Homo sapiens (Human), UniProt Q969H4 193-287)
T8 construct: The label ConEn is not explained in the excerpts
T8 sequence: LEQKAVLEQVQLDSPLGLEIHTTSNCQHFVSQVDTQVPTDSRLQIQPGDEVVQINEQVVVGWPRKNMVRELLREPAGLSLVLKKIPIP

[9] = target: T9, NOS1 PDZ-GST fusion protein (Homo sapiens (Human), UniProt P29475 11-100)
T9 construct: Order of GST and PDZ part and limits not seen in the excerpts
T9 sequence (P29475 11-100 limits assumed): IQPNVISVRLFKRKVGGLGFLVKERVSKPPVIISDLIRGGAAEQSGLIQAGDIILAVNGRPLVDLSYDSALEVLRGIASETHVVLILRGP

[10] = target: T10, GST-MPP1 PDZ domain fusion protein (Homo sapiens (Human), UniProt Q00013 67-152)
T10 construct: also called p55; 55 Kd erythrocyte membrane protein; not shown: glutathione S-transferase encoded by vector pGEX-3X (Pharmacia)
T10 sequence: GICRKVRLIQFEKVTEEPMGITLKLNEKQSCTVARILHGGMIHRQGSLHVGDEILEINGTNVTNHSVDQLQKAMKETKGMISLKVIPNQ

[11] = target: T11, GST-TAX-IP2 PDZ domain fusion protein (human, UniProt O14908 129-216)
T11 construct: also called TAX-1P2; TAX2; not shown: glutathione S-transferase encoded by vector pGEX-3X (Pharmacia)
T11 chain: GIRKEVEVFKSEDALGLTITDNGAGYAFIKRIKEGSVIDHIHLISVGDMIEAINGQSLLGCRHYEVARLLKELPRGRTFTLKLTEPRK

[12] = target: T12, GST-PTN-4 PDZ domain fusion protein (Homo sapiens (Human), UniProt P29074 517-605)
T12 construct: also called protein-tyrosine phosphatase meg1; not shown: glutathione S-transferase encoded by vector pGEX-3X (Pharmacia)
T12 sequence: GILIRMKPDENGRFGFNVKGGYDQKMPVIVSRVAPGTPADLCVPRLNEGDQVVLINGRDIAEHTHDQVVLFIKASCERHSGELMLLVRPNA

[13] = target: T13, GST-TAX-IP43 PDZ domain fusion protein (human, UniProt Q13884 109-180)
T13 construct: also called TAX43; not shown: glutathione S-transferase encoded by vector pGEX-3X (Pharmacia)
T13 sequence: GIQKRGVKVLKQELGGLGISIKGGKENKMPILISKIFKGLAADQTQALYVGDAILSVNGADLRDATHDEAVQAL

[14] = target: T14, KIAA0807 (PDZ domain)-GST fusion protein (human, UniProt Q6P0Q8 1104-1192)
T14 construct: also called K807; KIAA807; not shown: glutathione S-transferase encoded by vector pGEX-3X (Pharmacia)
T14 sequence: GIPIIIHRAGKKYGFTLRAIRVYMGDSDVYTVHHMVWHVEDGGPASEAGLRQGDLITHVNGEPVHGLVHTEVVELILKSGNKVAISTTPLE

Measured: binding result

Biotin-QATSENGHSARQHVVADTEL [CD34 C-terminal peptide AA7L, biotinylated]
not listed: [14]
no binding: all other assays above

Biotin-QFMTADETRNLQNVDMKIGV (also called CD44 (long form)) [CD44 C-terminal peptide AA9L, biotinylated]
not listed: [4] | [10]
no binding: all other assays above

B1: CDw137 (4-1BB ILA) C-terminal peptide AA21L (peptide)
peptide: Biotin-QEEDGCSCRFPEEEEGGCEL
modifications: cysteine pairing not given here
notes: Marked (S), sticky peptide with high background; also called CDw137 (4-1BB ILA) (S)
not listed: [1] | [7] | [8]
no binding: all other assays above

B2: CD138 C-terminal peptide AA18L, biotinylated (peptide)
peptide: Biotin-PKQANGGAYQKPTKQEEFYA
notes: also called CD138 (syndecan-1); CD138 (syndecan)
not listed: [4] | [6]
no binding: all other assays above

B3: V-gated Ca2+ channel C-terminal peptide AA46L (peptide)
peptide: Biotin-SSGGRARHSYHHPDQDHWC
notes: Marked (S), sticky peptide with high background; also called V-gated Ca2+ channel (S)
not listed: [1] | [8]
no binding: all other assays above

Biotin-TREDIYVNYPTFSRRPKTRV [DNAM-1 C-terminal peptide AA22L, biotinylated]
not listed: [9] | [10]
no binding: all other assays above

Biotin-QGDPALQDAGDSSRKEYFI (also called GC) [Glycophorin C C-terminal peptide AA37L, biotinylated]
not listed: [10]
no binding: all other assays above

Biotin-PYGTAMEKAQLKPPATSDA (also called CD49E (alpha-4)) [CD49E C-terminal peptide AA11L, biotinylated]
no binding: all assays above

Biotin-EVICYIEKPGVETLEDSVF [CDW125 (IL5R) C-terminal peptide AA28L, biotinylated]
not listed: [12]
no binding: all other assays above
